B1: α2-macroglobulin (protein, UniProt P01023 24-1474, looked up)
chain: SVSGKPQYMVLVPSLLHTETTEKGCVLLSYLNETVTVSASLESVRGNRSLFTDLEAENDVLHCVAFAVPKSSSNEEVMFLTVQVKGPTQEFKKRTTVMVKNEDSLVFVQTDKSIYKPGQTVKFRVVSMDENFHPLNELIPLVYIQDPKGNRIAQWQSFQLEGGLKQFSFPLSSEPFQGSYKVVVQKKSGGRTEHPFTVEEFVLPKFEVQVTVPKIITILEEEMNVSVCGLYTYGKPVPGHVTVSICRKYSDASDCHGEDSQAFCEKFSGQLNSHGCFYQQVKTKVFQLKRKEYEMKLHTEAQIQEEGTVVELTGRQSSEITRTITKLSFVKVDSHFRQGIPFFGQVRLVDGKGVPIPNKVIFIRGNEANYYSNATTDEHGLVQFSINTTNVMGTSLTVRVNYKDRSPCYGYQWVSEEHEEAHHTAYLVFSPSKSFVHLEPMSHELPCGHTQTVQAHYILNGGTLLGLKKLSFYYLIMAKGGIVRTGTHGLLVKQEDMKGHFSISIPVKSDIAPVARLLIYAVLPTGDVIGDSAKYDVENCLANKVDLSFSPSQSLPASHAHLRVTAAPQSVCALRAVDQSVLLMKPDAELSASSVYNLLPEKDLTGFPGPLNDQDNEDCINRHNVYINGITYTPVSSTNEKDMYSFLEDMGLKAFTNSKIRKPKMCPQLQQYEMHGPEGLRVGFYESDVMGRGHARLVHVEEPHTETVRKYFPETWIWDLVVVNSAGVAEVGVTVPDTITEWKAGAFCLSEDAGLGISSTASLRAFQPFFVELTMPYSVIRGEAFTLKATVLNYLPKCIRVSVQLEASPAFLAVPVEKEQAPHCICANGRQTVSWAVTPKSLGNVNFTVSAEALESQELCGTEVPSVPEHGRKDTVIKPLLVEPEGLEKETTFNSLLCPSGGEVSEELSLKLPPNVVEESARASVSVLGDILGSAMQNTQNLLQMPYGCGEQNMVLFAPNIYVLDYLNETQQLTPEIKSKAIGYLNTGYQRQLNYKHYDGSYSTFGERYGRNQGNTWLTAFVLKTFAQARAYIFIDEAHITQALIWLSQRQKDNGCFRSSGSLLNNAIKGGVEDEVTLSAYITIALLEIPLTVTHPVVRNALFCLESAWKTAQEGDHGSHVYTKALLAYAFALAGNQDKRKEVLKSLNEEAVKKDNSVHWERPQKPKAPVGHFYEPQAPSAEVEMTSYVLLAYLTAQPAPTSEDLTSATNIVKWITKQQNAQGGFSSTQDTVVALHALSKYGAATFTRTGKAAQVTIQSSGTFSSKFQVDNNNRLLLQQVSLPELPGEYSMKVTGEGCVYLQTSLKYNILPEKEEFPFALGVQTLPQTCDEPKAHTSFQISLSVSYTGSRSASNMAIVDVKMVSGFIPLKPTVKMLERSNHVSRTEVSSNHVLIYLDKVSNQTLSLFFTVLQDVPVRDLKPAIVKVYDYYETDEFAIAEYNAPCSKDLGNA
B2: α2-antiplasmin (protein, UniProt P08697 40-491, looked up)
chain: NQEQVSPLTLLKLGNQEPGGQTALKSPPGVCSRDPTPEQTHRLARAMMAFTADLFSLVAQTSTCPNLILSPLSVALALSHLALGAQNHTLQRLQQVLHAGSGPCLPHLLSRLCQDLGPGAFRLAARMYLQKGFPIKEDFLEQSEQLFGAKPVSLTGKQEDDLANINQWVKEATEGKIQEFLSGLPEDTVLLLLNAIHFQGFWRNKFDPSLTQRDSFHLDEQFTVPVEMMQARTYPLRWFLLEQPEIQVAHFPFKNNMSFVVLVPTHFEWNVSQVLANLSWDTLHPPLVWERPTKVRLPKLYLKHQMDLVATLSQLGLQELFQAPDLRGISEQSLVVSGVQHQSTLELSEVGVEAAAATSIAMSRMSLSSFSVNRPFLFFIFEDTTGLPLFVGSVRNPNPSAPRELKEQQDSPGNKDFLQSLKGFPRGDKLFGPDLKLVPPMEEDYPQFGSPK

Columns and labels:
Test in all cases: cell-based or functional assay
[1] = biological target: delta-plasmin (human (recombinant deletion mutant of human plasminogen, made in E. coli)) (UniProt P00747)
mini-plasmin (human) = mini-plasmin (human) (UniProt P00747)
plasmin (human) = plasmin (human) (UniProt P00747)
micro-plasmin = micro-plasmin (UniProt P00747)

| Binder | inhibition rate (22° C., PBS, pH 7.4) [1] [M^-1s^-1] | inhibition rate (22° C., PBS, pH 7.4) (mini-plasmin (human)) [M^-1s^-1] | inhibition rate (22° C., PBS, pH 7.4) (plasmin (human)) [M^-1s^-1] | inhibition rate (22° C., PBS, pH 7.4) (micro-plasmin) [M^-1s^-1] | fold change of inhibition rate against micro-plasmin or mini-plasmin [1] [fold] | inhibition rate (22° C., PBS, pH 7.4; residual S-2251 activity) [1] [M^-1s^-1] | inhibition rate (22° C., PBS, pH 7.4; residual S-2251 activity) (mini-plasmin (human)) [M^-1s^-1] | inhibition rate (22° C., PBS, pH 7.4; residual S-2251 activity) (micro-plasmin) [M^-1s^-1] | inhibition rate (second separate experiment; residual S-2251 activity) (micro-plasmin) [M⁻¹ s⁻¹] |
| --- | --- | --- | --- | --- | --- | --- | --- | --- | --- |
| B1 | 760000 | 750000 | 650000 | 780000 | – | – | – | – | – |
| B2 | – | – | – | – | 40 | 1.1e+07 | 240000 | 180000 | 310000 |

Source: patent US20100304465A1
